Measured values reported in the supplement of paper PMC12764529.
± gives the half width of the 95% confidence interval.

Key:
[1] = folding stability dG unfold (combined trypsin and chymotrypsin); higher = more stable
Summary of the method: (§1)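 Designed mini-proteins (under 80 residues, no cysteine) in a PA-tagged cDNA display construct were digested with trypsin and chymotrypsin. Each protease was used at 11 concentrations (threefold dilutions) plus a no-protease condition, followed by sequencing. K50 was inferred by Bayesian fitting of sequencing counts, and unfolding free energy was derived against a sequence-predicted unfolded-state K50 and a shared folded-state K50, per protease or combined. Only designs with AlphaFold2 dimer inter-PAE above 15 were kept.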

[2] = folding stability dG unfold from chymotrypsin proteolysis; higher = more stable
Summary of the method: as §1

[3] = folding stability dG unfold from trypsin proteolysis; higher = more stable
Summary of the method: as §1

Sequence	folding stability dG unfold [1]	folding stability dG unfold [2]	folding stability dG unfold [3]
SAGGSAGGMTFTFPPGARVRIAIYNKNGELIEEREIDEPGAKITIEKDEETGEWRIVSIELLEPSAGGSAGG [r6_523_TrROS_Hall]	3.45 ± 0.18 kcal/mol	3.76 ± 0.05 kcal/mol	3.12 ± 0.084 kcal/mol
SAPVIEITEVTFNPDGSVEVTLVIPFPDDPEIPPEEIAKAIKEAFGFEEVTVEPIPETGAWRITLRAPGSAG [r14_228_TrMRF]	4.07 ± 0.12 kcal/mol	4.18 ± 0.089 kcal/mol	3.4 ± 0.14 kcal/mol
SAGGSAGGSAGKMYRITVTNENGEKLEIEVPEEVKTEEELKEELKKKIPNVVEVKIEEVPSAGGSAGGSAGG [r11_311_TrROS_Hall]	0.377 ± 0.25 kcal/mol	0.433 ± 0.14 kcal/mol	0.242 ± 0.096 kcal/mol
SAGSVTITLNIPPGQDVTLNIGGKEATLTVDPETKVYTMTDPQTGDVWTVTVDPNSPVASVTYTAAPAGSAG [r5_302_JUSTAS]	1.37 ± 0.11 kcal/mol	1.57 ± 0.15 kcal/mol	0.996 ± 0.039 kcal/mol
SAKITIFFPFDAVKEILDLLKENGVEVNIERHPGNPWYSATITRPDPNGKELPIEIMMFPDHGYVQITLSAG [r14_169_TrROS]	2.57 ± 0.13 kcal/mol	2.62 ± 0.04 kcal/mol	2.65 ± 0.14 kcal/mol
SADPLSSILSQALSVEFDPETGKVTITTKDKSIVEKALEEGAENATLTESEDDIYTATIDLPPLPEGVLSAG [r14_115_TrMRF]	0.12 ± 0.39 kcal/mol	-0.155 ± 0.085 kcal/mol	0.576 ± 0.12 kcal/mol
SAGGSAGGSAGGSPNPLLPPVRPKVILKDPKTGTTKTFTTEEEAKKAVESGEYTVLKIESAGGSAGGSAGGS [r10_520_JUSTAS]	0.217 ± 0.058 kcal/mol	0.353 ± 0.11 kcal/mol	-0.0844 ± 0.066 kcal/mol
SAGGSAGGSAGGMALIKLPNGEVQPVKIKAIDPDGNILVEPENSEWQTFSFDGLEIIPLPSAGGSAGGSAGG [r7_823_TrMRF]	0.886 ± 0.16 kcal/mol	0.955 ± 0.16 kcal/mol	0.647 ± 0.041 kcal/mol
SAGGSAGGSAEVFIVKFSDPAKLKAFMEKLGLSYEKGDNPKITNPEEFLKNLPLVKNVVVTKKSAGGSAGGS [r12_571_JUSTAS]	0.423 ± 0.057 kcal/mol	0.54 ± 0.14 kcal/mol	0.286 ± 0.12 kcal/mol
SAGGSAGGSMKLVTVKMKRPNGPVELTPVLPVDPSETLEEVKERVLELYPGAEITEITVTPDESAGGSAGGS [r12_738_JUSTAS]	0.457 ± 0.15 kcal/mol	0.708 ± 0.15 kcal/mol	-0.358 ± 0.11 kcal/mol
SAGGSAGGSAGGSMVVEYDPETGVRTTTVALPSDSVEVTTEKIDPATGEVVETVTELAASAGGSAGGSAGGS [r4_415_JUSTAS]	0.358 ± 0.086 kcal/mol	0.634 ± 0.048 kcal/mol	-0.105 ± 0.027 kcal/mol
SAGVDGVKWNPESNEVSVEYEVNNQRVEQYIEPKPIPPVIVIPIDDIAERNPGLKDDLDENPGDWLVFPSAG [r5_958_TrROS]	0.415 ± 0.09 kcal/mol	-0.332 ± 0.089 kcal/mol	0.79 ± 0.077 kcal/mol
SAGGSAIDPRLLKLPKVKVEILSVEPVTGEDDKPFFVAKVKTDLEPGFYAYIILDPETGKIVKVFDSAGGSA [r15_66_TrMRF]	1.4 ± 0.072 kcal/mol	1.57 ± 0.093 kcal/mol	1.19 ± 0.038 kcal/mol
SAGGSPKPVPVTITSVTSTSVEVYLPSTGATFTFNLNEEKTLTLPDGSKIYFTFNSDGSVTATVIEYGSAGG [r13_352_TrMRF]	4.83 ± 0.12 kcal/mol	4.88 ± 0.051 kcal/mol	5.03 ± 0.73 kcal/mol
SAGGSAGGSKEKKTVILRIKIYVKNENGELIEEIEIPLKDLTLEELKELAKKLNVKVEIELLPSAGGSAGGS [r12_398_TrROS_Hall]	3.05 ± 0.2 kcal/mol	3.5 ± 0.14 kcal/mol	1.69 ± 0.16 kcal/mol
SAGGSAGGSMPFKIDVEVERHPEDNMYQVEITFPGNREIPIMVDDPSDPEKAKNIAKEFAKQLSAGGSAGGS [r12_1012_TrROS]	-0.0883 ± 0.13 kcal/mol	-0.648 ± 0.7 kcal/mol	0.13 ± 0.082 kcal/mol
SAGGSAGGSPLDIEIKMEFHPDHGYWEMEIKIPGNGREINIHYQYEGGKPQITSPEQILDAIKSAGGSAGGS [r20_131_TrROS]	1.24 ± 0.24 kcal/mol	1.5 ± 0.082 kcal/mol	0.622 ± 0.12 kcal/mol
SEEELENLPNVVRLELEVEIDGVRVRIETEFRLNEDGSLEVRTRIEVEPLPPPVEVVLDENGELVEVRVESA [r9_456_TrROS_Hall]	3.12 ± 0.14 kcal/mol	3.42 ± 0.13 kcal/mol	2.81 ± 0.08 kcal/mol
SAGGSAGGSAGMVKVKITAPPNASLDAIIKAVKDNGAEIISIERKGNELIIEVEIPEENASAGGSAGGSAGG [r11_672_TrMRF]	1.42 ± 0.062 kcal/mol	1.28 ± 0.046 kcal/mol	1.54 ± 0.054 kcal/mol
SAGGSAGGSAGGGMTTTKTEVSFSPAGGLVTTKSTERLPGTGELKEVTSVTPLASSGTTSAGGSAGGSAGGS [r10_296_JUSTAS]	0.622 ± 0.081 kcal/mol	0.846 ± 0.034 kcal/mol	0.0156 ± 0.034 kcal/mol
SAGGGEIKIEIYRHPDTIMIRVKWDNPQQLKEEIIELFREENGFKPKEVSVQYNPNGYLYIMFEFKPKSAGG [r13_158_TrROS]	3.64 ± 0.21 kcal/mol	4.12 ± 0.086 kcal/mol	2.59 ± 0.12 kcal/mol
